Results taken from the supplement of paper PMC10567573.

B1: MGC27345 (parent)
chain: KYMPHLCQDSSGEVSCQCQLHPPR
B2: JUNB (parent)
chain: FVKALDDLHKMNHVTPPNVSLGAT

Variants of: B1
Test: protein stability index of a GFP-peptide fusion (GPS, HEK-293T) (PSI 1-6); higher = more stable
Conditions: c terminus: a fixed tail appended
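Further: lentivirally expressed fusions sorted by FACS into six bins by GFP to DsRed ratio, PSI derived from sequencing read proportions per bin multiplied by bin number.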

Variant | protein stability index
KYMPHLCQDSYGEVSCQCQLHPPR | 1.52
KYMPHLCQDSFGEVSCQCQLHPPR | 1.58
KYMPHLCQDSHGEVSCQCQLHPPR | 2.16
KYMPHLCQDSGGEVSCQCQLHPPR | 3.17
KYMKHLCQDSSGEVSCQCQLHPPR | 1.58
KYMCHLCQDSSGEVSCQCQLHPPR | 3.23
KYMNHLCQDSSGEVSCQCQLHPPR | 1.78
KYMWHLCQDSSGEVSCQCQLHPPR | 1.67
KYMPHLCQDSSGEVSLQCQLHPPR | 2.94
KYMPHLCQDSSGEVSNQCQLHPPR | 3.1
KYMPHLCQDSSGEVSIQCQLHPPR | 1.93
KYMPHLCQDSSGEVSMQCQLHPPR | 2.9
KYMPHLCQDSSGEVSCDCQLHPPR | 2.83
KYMPHLCQDSSGEVSCKCQLHPPR | 3.52
KYMPHLCQDSSGEVSCMCQLHPPR | 3.13
KYMPHLCQDSSGEVSCGCQLHPPR | 1.62
KYMPHLCQDSSGEVSCICQLHPPR | 1.76
KYMPHLCQDSSGEVSCFCQLHPPR | 2.21
KYMPHLFQDSSGEVSCQCQLHPPR | 2.21
KYMPHLSQDSSGEVSCQCQLHPPR | 1.47
KYMPHLDQDSSGEVSCQCQLHPPR | 2.11

Variant | protein stability index
KYMPHLWQDSSGEVSCQCQLHPPR | 1.75
KYMPHLYQDSSGEVSCQCQLHPPR | 1.63
KYMPHLCQDSSGEVSCQCQLHPQR | 2.29
KYMPQLCQDSSGEVSCQCQLHPPR | 2.6
KYMPPLCQDSSGEVSCQCQLHPPR | 2.27
KYMPYLCQDSSGEVSCQCQLHPPR | 1.98
KYMPHLCQDSSGEVSCQCQLPPPR | 3.07
KYMPHLCQDSSGEVSCQCQLIPPR | 2.75
KYMPHLCQDSSGEVSCQCQLAPPR | 3.18
KYMPHLCQDSSGEVSCQCQLKPPR | 2.7
KYMPHLCQDSSGEVSCQCQLFPPR | 1.63
KYMPHLCQASSGEVSCQCQLHPPR | 2.73
KYMPHLCQDSSGEVSCQCFLHPPR | 2.71
KYMPHLCQDSSGEVSCQCCLHPPR | 2.07
KYMPHLCQDSSGEVSCQCELHPPR | 3.08
KYMPHLCQDSSGEVSCQCWLHPPR | 2.48
KYMPHLCQDSSGEVSCQCQSHPPR | 2.49
KYMPHLCQDSSGEVSCQCQTHPPR | 2.12
KYMPHLCQDSSGEVSCQCQCHPPR | 2.44
KYMPHLCQDSSGEVYCQCQLHPPR | 2.22
KYMPHLCQDSSGEVRCQCQLHPPR | 1.63

Variant | protein stability index
KYMPHLCQDSSGEVSCQCQLHDPR | 4.1
KYMPHLCQDSSGEVSCQCQLHRPR | 2.62
KYMPHLCQDSSGEVSCQCQLHSPR | 2.55
KYMPHLCQDSSGEVSCQCQLHVPR | 2.17
KYMPHLCQDSSGEVSCQCQLHLPR | 2.73
KYMPHLCPDSSGEVSCQCQLHPPR | 2.15
KYMPHLCYDSSGEVSCQCQLHPPR | 1.7
KYMPHLCLDSSGEVSCQCQLHPPR | 1.77
KYMPHLCMDSSGEVSCQCQLHPPR | 2.83
KYMPHLCQDSSGRVSCQCQLHPPR | 2.44
KYMPHLCQDSSGPVSCQCQLHPPR | 2.31
KYMPHLCQDSSGFVSCQCQLHPPR | 1.71
KYMPHACQDSSGEVSCQCQLHPPR | 1.73
KYMPHTCQDSSGEVSCQCQLHPPR | 2.34
KYMPHECQDSSGEVSCQCQLHPPR | 2.71
KYMPHLCQDHSGEVSCQCQLHPPR | 2.91
KYMPHLCQDGSGEVSCQCQLHPPR | 2.08
KYMPHLCQDYSGEVSCQCQLHPPR | 4.19
KYMPHLCQDRSGEVSCQCQLHPPR | 1
KYMPHLCQDASGEVSCQCQLHPPR | 2.06
KYMPHLCQDSSGEVSCQFQLHPPR | 1.93

Variant | protein stability index
KYMPHLCQDSSGEVSCQYQLHPPR | 1.69
KYMPHLCQDSSGEVSCQTQLHPPR | 3.35
KYMPHLCQDSSGEVSCQLQLHPPR | 3.35
KYMPHLCQDSSGEVSCQCQLHPPM | 3.31
KYMPHLCQDSSGEVSCQCQLHPPK | 3.26
KYMPHLCQDSSGEVSCQCQLHPPF | 3.39
KYMPHLCQDSSGEVSCQCQLHPPY | 3.87
KYMPHLCQDSSGEVSCQCQLHPPL | 3.85
KYMPHLCQDSSGEVSCQCQLHPPW | 2.89
KYMPHLCQDSSGEYSCQCQLHPPR | 2.08
KYMPHLCQDSSGEESCQCQLHPPR | 3.31
KYMPHLCQDSSGEDSCQCQLHPPR | 2.25
IYMPHLCQDSSGEVSCQCQLHPPR | 1.98
TYMPHLCQDSSGEVSCQCQLHPPR | 1.9
KIMPHLCQDSSGEVSCQCQLHPPR | 3.1
KFMPHLCQDSSGEVSCQCQLHPPR | 1.86
KQMPHLCQDSSGEVSCQCQLHPPR | 1.78
KNMPHLCQDSSGEVSCQCQLHPPR | 3.13
KYDPHLCQDSSGEVSCQCQLHPPR | 2.34

Variants of: B2
Test: as above
Conditions: c terminus: a fixed tail appended

Variant | protein stability index
GVKALDDLHKMNHVTPPNVSLGAT | 4.05
PVKALDDLHKMNHVTPPNVSLGAT | 4.57
CVKALDDLHKMNHVTPPNVSLGAT | 2.61
NVKALDDLHKMNHVTPPNVSLGAT | 3.95
KVKALDDLHKMNHVTPPNVSLGAT | 3.92
IVKALDDLHKMNHVTPPNVSLGAT | 2.84
DVKALDDLHKMNHVTPPNVSLGAT | 4.6
EVKALDDLHKMNHVTPPNVSLGAT | 4.27
MVKALDDLHKMNHVTPPNVSLGAT | 3.6
HVKALDDLHKMNHVTPPNVSLGAT | 4
LVKALDDLHKMNHVTPPNVSLGAT | 3.29
AVKALDDLHKMNHVTPPNVSLGAT | 4.1
